Data taken from publication PMC2185068.

Target: Myc-nectin-1-CP (aa 379–518) (human)
Test: pull-down

- stoichiometry N: 1
B1: GST-l-afadin-PDZ (aa 1007–1125) (domain or fragment)
chain: PLRKEPEVITVTLKKQNGMGLSIVAAKGAGQDKLGIYVKSVVKGGAADVDGRLAAGDQLLSVDGRSLVGLSQERAAELMTRTSSVVTLEVAKQGAIYHGLATLLNQPSPMMQRISDRRG
